According to US20230095569A1 (ANTENGENE BIOLOGICS, published 2023):

Legend:
[1] = biological target: T1, human Claudin18.2 (CLDN18.2) (human, UniProt P56856 1-261); assay: cell-based or functional assay
[2] = biological target: T1, human Claudin18.2 (CLDN18.2); assay: cell-based or functional assay; remark: listed apart in the source
[3] = biological target: T1, human Claudin18.2 (CLDN18.2); assay: FACS on CHOK1-18.2 cells;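 for FACS MFI: antibody binding to the cells detected with a fluorescently labelled secondary antibody and read out as median fluorescence intensity by flow cytometry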
[4] = biological target: T1, human Claudin18.2 (CLDN18.2); assay: cell-based or functional assay; remark: listed apart in the source
[5] = biological target: T1, human Claudin18.2 (CLDN18.2); assay: FACS on CHOK1-18.2 cells, antibody at 50 µg/ml
[6] = biological target: T1, human Claudin18.2 (CLDN18.2); assay: FACS on GAXC031 cells, antibody at 50 µg/ml
[7] = biological target: T2, human Claudin18.1 (CLDN18.1) (human, UniProt P56856 1-261); assay: FACS on CHOK1-18.1 cells;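 for FACS MFI: test antibody binding to the cells detected by flow cytometry using a fluorescent dye-labelled secondary antibody, read out as median fluorescence intensity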;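 for result: antibody binding to cells detected with a fluorescently labelled secondary antibody, read out as median fluorescence intensity (MFI) by flow cytometry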
T2 construct: whole, on cells; also called human Claudine18.1
Description: (§1) The specificity and cross-reactivity of these subclones were confirmed with FACs analysis. […] Fluorescent dye-conjugated secondary antibody was used to detect the binding of the primary antibody with the cells. Median fluorescence intensity (MFI) was measured by FACs analysis.

[8] = biological target: T2, human Claudin18.1 (CLDN18.1); assay: FACS on CHOK1-18.1 cells; remark: listed apart in the source;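 for FACS MFI: test antibody binding to the cells detected by flow cytometry using a fluorescent dye-labelled secondary antibody, read out as median fluorescence intensity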;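 for result: antibody binding to cells detected with a fluorescently labelled secondary antibody, read out as median fluorescence intensity (MFI) by flow cytometry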
Description: as §1

[9] = biological target: T1, human Claudin18.2 (CLDN18.2); assay: FACS on CHOK1-18.2 cells; remark: listed apart in the source;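 for FACS MFI: antibody binding to the cells detected with a fluorescently labelled secondary antibody and read out as median fluorescence intensity by flow cytometry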
Description: as §1

Row | Binder | Max inhibition % [1] [%] | CDC EC50 [2] [nM] | EC50 [3] [nM] | ADCC EC50 [4] [nM] | MAX MFI [5] | MAX MFI [6] | binding result [7] | FACS MFI [8] | FACS MFI [9] | IC50 of indirect ADC cytotoxicity [1] [nM] | Max CDC induced tumor cell killing (% of control) [2] | Max tumor cell killing (% of control), ADCC [4]
1 | chAb24 (antibody, V domains shown) VH: EVKLVESGGGLVKPGGSLKLSCAGSGFTFSSYTMSWVRQTPEKRLEWVATITIGVNIYYLDSVKGRFTISRDNAKNTLYLQMNSLRSEDTALYYCTRLGQTQRNAMDYWGQGTSVTVSS VL: DIVMTQSPTSLSVSAGEKVTMTCKSSQSLFNSGNQKNYLAWYQEKPGQPPKLLIYGASTRESGVPDRFTGSGSGTDFTLTISSVQAEDLAVYYCQNVHFYPFTFGAGTKLEL | 92.7 | 12.8 | 4.99 | 4.46 | 64500 | 5860 |  |  |  | 0.85 | 70.7 % of control | 66.6 % of control
2 | chAb18 (antibody, V domains shown) VH: QVQLKESGPGLVAPSQSLSITCTVSGFSLTTYGINWVRQPPGKGLEWLGVIWGDGSTNYHSALISRLSISKDNSKSQVFLKLNSLQTDDTATYYCVKSSYYGNAMDYWGQGTSVTVSS VL: DIVMTQSPSSLTVTAGETVTMSCKSSQSLLNSGNQKNYLTWYQQKPGQPPKLLIYWASTRESGVPDRFTGSGSGTDFTLTISSVQAEDLAVYYCQNVYSYPFTFGSGTKLEI | 90.7 | 35 | 7.71 | 5.07 | 60200 | 3690 |  |  |  | 1.58 | 75.3 % of control | 61.5 % of control
3 | chAb29 (antibody, V domains shown) VH: EVLLQQSGPELVKPGASVKIPCKASGYTLTDHSMDWVKQSHGKSLEWIGNILPNNGGNIYNQKFRGKATLTVDKSSSTAYMELRSLTSEDTAVYNCARGHYGNSFAYWGQGTLVIVS VL: DIVMTQSPSSLTVRAGEKVTIYCKSSQSLFNSGNQKNYLTWYQQKPGQPPKLLIYWASTRESGVPHRFTGSGSGTDFTLTISSMQADDLATYYCQNGYFFPYTFGGGTKLEIK | 93.5 | 12.7 | 6.63 | 5.27 | 63400 | 5640 |  |  |  | 0.91 | 67.8 % of control | 60.9 % of control
4 | chAb30 (antibody, V domains shown) VH: QVQLKESGPGLVAPSQSLSITCTVSGFSLTKFGVNWVRQPPGKGLEWLGAIWGDGSTNYHSALISRLSINKDNSKSQVFLKLSSLQNVDTATYYCAKSGYGNAMDYWGHGTSVTVSS VL: DIVMTQSPSSLTVTTGEKVTLNCKSSQSLLNSGNLKNYLTWYQQRPGQPPKLLIYWASTRESGVPYRFTGSGSGTDFTLTISNVQAEDLAIYYCQNDYFFPFTFGSGTKLEIK | 92.4 | 23.2 | 9.76 | 7.44 | 65000 | 4460 |  |  |  | 1.58 | 76.1 % of control | 80.2 % of control
5 | chAb11 (antibody, V domains shown) VH: EVMLVESGGDLVKPGGSLKLSCAASGFTFSRYTMSWVRQTPEKRLEWVATVSVGSGNTYYLDSVKGRFTISRDNAKNTLFLQMNSLRSEDTALYYCTRLGQTQRNAVDYWGQGTSVTVSS VL: DIVMTQSPSFLSVSAGEKVTMSCKSSQSLFNGGNQKNYLAWYQQKPGQPPKLLIYGASTRDSGVPDRFTGSGSGTDFTLTISNVQAEDLAIYFCQNDHSFPLTFGAGTKLELK | 93.5 | 19.4 | 3.63 | 3.7 | 85600 | 6420 |  |  |  | 0.87 | 71.2 % of control | 54.7 % of control
6 | chAb08 (antibody, V domains shown) VH: QVQLQQPGAELVKPGASVKLSCKASGYTFTSYLLHWVKQRPGQGLEWIGMIHPNGGSTNYNEKFKTKATLTVDKSSSTAYMQLSSLTSEDSAVYYCAPVYFGNSFAYWGQGTLVTVSA VL: DIVMTQSPSSLTVTAGEKVTMSCKSSQSLLNSGNQKNYLTWYQQKPGQPPKLLIYWASTRESGVPDRFTGSGSGTDFTLTISSVQAEDLAVYYCQNDYYYPFTFGSGTKLEKK | 92.5 | 13.6 | 3.6 | 2.22 | 71900 | 5830 |  |  |  | 0.45 | 68.4 % of control | 69.3 % of control
7 | chAb06 (antibody, V domains shown) VH: EVQLVASGGGLVKPGGSLKLSCAASGITFRSYAMSWVRQTPEKRLEWVATITDGGSYIFYPDNVKGRFTISGDHAKNNLYLQMSHLKSEDTALYFCVRLYYGNSFAYWGQGTLVTVSA VL: DIVMTQSPSSLTVTAGEKVTLNCKSSQSLFNSGNQKNYLTWYQQKPGQPPKLLIYWASTRESGVPDRFTGSGSGTDFTLTFSSVQAEDLAVYYCQNAYIYPFTFGSGTKLEIK | 91.8 | 9.72 | 5.42 | 3.01 | 92800 | 5460 |  |  |  | 0.61 | 75.4 % of control | 40.6 % of control
8 | chAb25 (antibody, V domains shown) VH: EAQLQQSGPELVKPGASVKIFCKASGYTFTDYYINWVKQSHGKSLEWIGDINPNNGGTTYNQKFKGKATLTVDKSSSTASMELRRLTSEDSSVYYCARRDAMDYWGQGTSVTVSS VL: DIVMTQSQKFMSTTVGDRVSITCTASQNVGPAVAWYQQKPGQSPKLLIYSASRRFTGVPDRFTGSGSGTVFTLTINNVQSEDLADYFCQQYISYPLTFGAGTKLELK | 92.9 | 25.4 | 8.27 | 8.38 | 56100 | 3020 |  |  |  | 0.86 | 72.9 % of control | 76.8 % of control
9 | chAb04 (antibody, V domains shown) VH: EVQLQQSGPELVKPGASVKMSCMASGYTFTDYNIHWVKRSHGSRLEWIGYISPISGGAGYNQKFMDKATLTVDKSSNTAYMELRSLTSEDSAVYYCTRGDYWGQGTTLTVSS VL: DIVMTQSPSSLAVTVGEKVTMSCKSSQSLLNSGNQKNYLTWYQQKPGQPPKLLIYWASTRKSGVPDRFTGSGSGTDFTLTISSVQAEDLGIYYCLNDYGFPLTFGAGSKLELK |  |  | 2.14 |  | 75300 | 3860 |  |  |  |  |  | 

More lines, main results first:

Row | Max inhibition % [1] [%] | CDC EC50 [2] [nM] | EC50 [3] [nM] | ADCC EC50 [4] [nM] | MAX MFI [5] | MAX MFI [6] | binding result [7] | FACS MFI [8] | FACS MFI [9] | Binder | IC50 of indirect ADC cytotoxicity [1] [nM] | Max CDC induced tumor cell killing (% of control) [2] | Max tumor cell killing (% of control), ADCC [4]
10 |  |  |  |  |  |  | no binding | 80.8 | 10100 | Ab24 (antibody, V domains shown, mouse monoclonal (hybridoma)) VH: EVKLVESGGGLVKPGGSLKLSCAGSGFTFSSYTMSWVRQTPEKRLEWVATITIGVNIYYLDSVKGRFTISRDNAKNTLYLQMNSLRSEDTALYYCTRLGQTQRNAMDYWGQGTSVTVSS VL: DIVMTQSPTSLSVSAGEKVTMTCKSSQSLFNSGNQKNYLAWYQEKPGQPPKLLIYGASTRESGVPDRFTGSGSGTDFTLTISSVQAEDLAVYYCQNVHFYPFTFGAGTKLEL |  |  | 
11 |  |  |  |  |  |  | no binding | 79.4 | 9910 | Ab18 (antibody, V domains shown, mouse monoclonal (hybridoma)) VH: QVQLKESGPGLVAPSQSLSITCTVSGFSLTTYGINWVRQPPGKGLEWLGVIWGDGSTNYHSALISRLSISKDNSKSQVFLKLNSLQTDDTATYYCVKSSYYGNAMDYWGQGTSVTVSS VL: DIVMTQSPSSLTVTAGETVTMSCKSSQSLLNSGNQKNYLTWYQQKPGQPPKLLIYWASTRESGVPDRFTGSGSGTDFTLTISSVQAEDLAVYYCQNVYSYPFTFGSGTKLEI |  |  | 
12 |  |  |  |  |  |  | no binding | 80.8 | 7340 | Ab19 (antibody, V domains shown, mouse monoclonal (hybridoma)) VH: EVMLVESGGDLVKPGGSLKLSCAASGFSFSRYTMSWVRQTPEKRLEWVATVSVGSGNTYYLDSVKGRFTISRDNAKNTLFLQMSSLRSEDTALYYCARMGQTQRNAVDYWGQGTSVTVSS VL: DIVMTQSPSSLSVSAGEKVTMSCKSSQSLFNSGNQKNYLAWYQQKPGQPPKLLIYGASTRESGVPDRFTGSGSGTDFTLTISNVQAEDLAVYLCQNDHSFPLTFGAGTKLEL |  |  | 
13 | 91.7 | 37.9 | 5.17 | 8.16 | 59900 | 3770 |  |  |  | chAb31 (antibody, V domains shown) VH: QIQLAQSGPELKKPGETVKISCKASGYSFTNYGMNWVKQAPGKGLKWMGWINTYSGETKYADDFKGRFDFSLETSARTAYLQIKNLKIEDTATYFCARRDAMDYWGQGTSVTVSS VL: DIVMTQAAPSVPVTPGESVSISCRSSKSLLNSNGNTYLYWFLQRPGQSPQLLIYRMSNLASGVPDRFSGSGSGTAFTLRISRVEAEDVGVYYCMQHLEFPFTFGSGTKLEIK | 2.35 | 60.7 % of control | 78.8 % of control
14 |  |  |  |  |  |  | no binding | 82.3 | 12600 | Ab25 (antibody, V domains shown, mouse monoclonal (hybridoma)) VH: EAQLQQSGPELVKPGASVKIFCKASGYTFTDYYINWVKQSHGKSLEWIGDINPNNGGTTYNQKFKGKATLTVDKSSSTASMELRRLTSEDSSVYYCARRDAMDYWGQGTSVTVSS VL: DIVMTQSQKFMSTTVGDRVSITCTASQNVGPAVAWYQQKPGQSPKLLIYSASRRFTGVPDRFTGSGSGTVFTLTINNVQSEDLADYFCQQYISYPLTFGAGTKLELK |  |  | 
